Results on 34 molecules are retold here after patent US20250340643A1 (AstraZeneca / MedImmune, published 2025).

First the molecules themselves.
T1: CTLA4 on the cells of the reporter gene bioassay (human, UniProt P16410 36-223)
T1 sequence (looked up): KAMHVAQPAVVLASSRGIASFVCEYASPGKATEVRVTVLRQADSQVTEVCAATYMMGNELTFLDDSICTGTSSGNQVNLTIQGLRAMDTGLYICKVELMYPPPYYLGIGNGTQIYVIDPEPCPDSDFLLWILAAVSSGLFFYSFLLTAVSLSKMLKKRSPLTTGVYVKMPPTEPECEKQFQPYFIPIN

B1: Tremelimumab, photo-stress study according to ICH guideline, Dark control (antibody, human IgG2, kappa)
heavy: QVQLVESGGGVVQPGRSLRLSCAASGFTFSSYGMHWVRQAPGKGLEWVAVIWYDGSNKYYADSVKGRFTISRDNSKNTLYLQMNSLRAEDTAVYYCARDPRGATLYYYYYGMDVWGQGTTVTVSSASTKGPSVFPLAPCSRSTSESTAALGCLVKDYFPEPVTVSWNSGALTSGVHTFPAVLQSSGLYSLSSVVTVPSSNFGTQTYTCNVDHKPSNTKVDKTVERKCCVECPPCPAPPVAGPSVFLFPPKPKDTLMISRTPEVTCVVVDVSHEDPEVQFNWYVDGVEVHNAKTKPREEQFNSTFRVVSVLTVVHQDWLNGKEYKCKVSNKGLPAPIEKTISKTKGQPREPQVYTLPPSREEMTKNQVSLTCLVKGFYPSDIAVEWESNGQPENNYKTTPPMLDSDGSFFLYSKLTVDKSRWQQGNVFSCSVMHEALHNHYTQKSLSLSPGK
light: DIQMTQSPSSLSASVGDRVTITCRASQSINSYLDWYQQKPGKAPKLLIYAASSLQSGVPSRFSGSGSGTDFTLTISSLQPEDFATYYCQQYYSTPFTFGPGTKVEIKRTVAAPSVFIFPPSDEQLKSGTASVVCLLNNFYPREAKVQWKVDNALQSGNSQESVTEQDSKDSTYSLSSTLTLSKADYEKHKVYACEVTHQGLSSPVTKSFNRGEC
modifications: oxidation by peptide mapping: Trp-52 3.3%, Met-256 2.8%, Met-362 1.3%, Met-401 1.3%, Met-432 0.6%
B2: Tremelimumab, photo-stress study at 2000 lux, t = 0 control (antibody, human IgG2, kappa)
heavy: B1 heavy
light: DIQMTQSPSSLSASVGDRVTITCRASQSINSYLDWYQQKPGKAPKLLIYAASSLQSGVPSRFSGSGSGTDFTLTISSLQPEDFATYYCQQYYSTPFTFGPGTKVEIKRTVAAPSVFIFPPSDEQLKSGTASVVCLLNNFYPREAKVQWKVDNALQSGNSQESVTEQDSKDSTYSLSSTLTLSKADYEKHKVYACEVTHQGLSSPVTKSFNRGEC
modifications: oxidation by peptide mapping: Trp-52 0.7%, Met-256 3.3%, Met-362 1.4%, Met-401 1.6%, Met-432 1.0%
B3: Tremelimumab, cool white light about 2000 lux for 14 days, DP (2R vial, horizontal) (antibody, human IgG2, kappa)
heavy: B1 heavy
light: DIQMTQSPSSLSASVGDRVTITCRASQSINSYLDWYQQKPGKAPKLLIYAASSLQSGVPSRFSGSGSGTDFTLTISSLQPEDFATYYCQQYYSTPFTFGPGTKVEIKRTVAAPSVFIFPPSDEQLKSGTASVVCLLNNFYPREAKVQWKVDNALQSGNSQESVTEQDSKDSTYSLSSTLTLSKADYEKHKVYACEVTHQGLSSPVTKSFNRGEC
modifications: oxidation by peptide mapping: Trp-52 6.4%, Met-256 7.8%, Met-362 2.5%, Met-401 2.7%, Met-432 5.4%
notes: also called DP (2R vial, horizontal) 14
B4: Tremelimumab, photo-stressed, DP 1x ICH (antibody, human IgG2, kappa)
heavy: B1 heavy
light: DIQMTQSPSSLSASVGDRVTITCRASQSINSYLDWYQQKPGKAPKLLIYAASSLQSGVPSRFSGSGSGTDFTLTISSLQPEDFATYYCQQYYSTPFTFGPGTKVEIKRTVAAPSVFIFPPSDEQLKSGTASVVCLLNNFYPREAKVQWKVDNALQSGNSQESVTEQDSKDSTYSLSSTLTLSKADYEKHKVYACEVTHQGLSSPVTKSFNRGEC
modifications: oxidation by peptide mapping: Trp-52 10.9%, Met-256 12.1%, Met-362 3.8%, Met-401 4.1%, Met-432 11.9%
B5: Tremelimumab, photo-stressed, DP 3x ICH (antibody, human IgG2, kappa)
heavy: B1 heavy
light: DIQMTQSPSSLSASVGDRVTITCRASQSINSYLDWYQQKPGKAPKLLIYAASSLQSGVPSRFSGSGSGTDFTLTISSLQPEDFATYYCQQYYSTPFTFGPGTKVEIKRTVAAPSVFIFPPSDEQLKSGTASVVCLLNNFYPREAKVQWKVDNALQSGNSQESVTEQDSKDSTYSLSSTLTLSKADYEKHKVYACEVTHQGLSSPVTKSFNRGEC
modifications: oxidation by peptide mapping: Trp-52 36.7%, Met-256 41.9%, Met-362 12.8%, Met-401 15.8%, Met-432 34.6%
B6: Tremelimumab, cool white light about 2000 lux for 14 days, DP (2R vial vertical) (antibody, human IgG2, kappa)
heavy: B1 heavy
light: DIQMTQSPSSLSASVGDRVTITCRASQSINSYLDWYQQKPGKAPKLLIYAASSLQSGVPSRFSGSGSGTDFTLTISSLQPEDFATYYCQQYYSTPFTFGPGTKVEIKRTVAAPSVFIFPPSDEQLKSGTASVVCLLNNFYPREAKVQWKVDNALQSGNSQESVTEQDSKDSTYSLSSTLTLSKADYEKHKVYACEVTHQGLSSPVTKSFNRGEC
modifications: oxidation by peptide mapping: Trp-52 5.4%, Met-256 7.1%, Met-362 2.2%, Met-401 2.5%, Met-432 4.7%
B7: Tremelimumab incubated in human serum at 37° C., week 4 (antibody, human IgG2, kappa, V domains shown)
VH: QVQLVESGGGVVQPGRSLRLSCAASGFTFSSYGMHWVRQAPGKGLEWVAVIWYDGSNKYYADSVKGRFTISRDNSKNTLYLQMNSLRAEDTAVYYCARDPRGATLYYYYYGMDVWGQGTTVTVSS
VL: DIQMTQSPSSLSASVGDRVTITCRASQSINSYLDWYQQKPGKAPKLLIYAASSLQSGVPSRFSGSGSGTDFTLTISSLQPEDFATYYCQQYYSTPFTFGPGTKVEIKR
modifications: Asn-30 deamidated in 34.8% (peptide mapping)
B8: Tremelimumab incubated in human serum at 37° C., week 2 (antibody, human IgG2, kappa, V domains shown)
VH: B7 VH
VL: B7 VL
modifications: Asn-30 deamidated in 22.9% (peptide mapping)
B9: Tremelimumab incubated in PBS at 37° C., week 2 (antibody, human IgG2, kappa, V domains shown)
VH: B7 VH
VL: B7 VL
modifications: Asn-30 deamidated in 18.5% (peptide mapping)
B10: Tremelimumab incubated in PBS at 37° C., week 5 (antibody, human IgG2, kappa, V domains shown)
VH: B7 VH
VL: B7 VL
modifications: Asn-30 deamidated in 44.7% (peptide mapping)
B11: Tremelimumab incubated in PBS at 37° C., week 1 (antibody, human IgG2, kappa, V domains shown)
VH: B7 VH
VL: B7 VL
modifications: Asn-30 deamidated in 8.8% (peptide mapping)
B12: Tremelimumab incubated in human serum at 37° C., week 0 (antibody, human IgG2, kappa, V domains shown)
VH: B7 VH
VL: B7 VL
modifications: Asn-30 deamidated in 3.4% (peptide mapping)
B13: Tremelimumab incubated in PBS at 37° C., week 3 (antibody, human IgG2, kappa, V domains shown)
VH: B7 VH
VL: B7 VL
modifications: Asn-30 deamidated in 27.0% (peptide mapping)
B14: Tremelimumab incubated in human serum at 37° C., week 5 (antibody, human IgG2, kappa, V domains shown)
VH: B7 VH
VL: B7 VL
modifications: Asn-30 deamidated in 37.7% (peptide mapping)
B15: Tremelimumab incubated in PBS at 37° C., week 4 (antibody, human IgG2, kappa, V domains shown)
VH: B7 VH
VL: B7 VL
modifications: Asn-30 deamidated in 37.7% (peptide mapping)
B16: Tremelimumab incubated in PBS at 37° C., week 0 (antibody, human IgG2, kappa, V domains shown)
VH: B7 VH
VL: B7 VL
modifications: Asn-30 deamidated in 2.2% (peptide mapping)
B17: Tremelimumab incubated in human serum at 37° C., week 1 (antibody, human IgG2, kappa, V domains shown)
VH: B7 VH
VL: B7 VL
modifications: Asn-30 deamidated in 11.1% (peptide mapping)
B18: Tremelimumab incubated in human serum at 37° C., week 3 (antibody, human IgG2, kappa, V domains shown)
VH: B7 VH
VL: B7 VL
modifications: Asn-30 deamidated in 33.9% (peptide mapping)
B19: Tremelimumab stressed at 40° C., 3 Months (fragment study) (antibody, human IgG2, kappa, V domains shown)
VH: B7 VH
VL: B7 VL
B20: Tremelimumab stressed at 40° C., 2 Months (fragment study) (antibody, human IgG2, kappa, V domains shown)
VH: B7 VH
VL: B7 VL
B21: Tremelimumab stressed at 40° C., 0 Months (fragment study) (antibody, human IgG2, kappa, V domains shown)
VH: B7 VH
VL: B7 VL
B22: Heat-stressed Tremelimumab (40° C.), month 2 (oxidation study) (antibody, human IgG2, kappa, V domains shown)
VH: B7 VH
VL: B7 VL
modifications: oxidation by peptide mapping: Trp-52 2.5%, Met-256 2.0%, Met-362 2.6%, Met-401 3.8%, Met-432 2.2%
B23: Heat-stressed Tremelimumab (40° C.), month 0 (oxidation study) (antibody, human IgG2, kappa, V domains shown)
VH: B7 VH
VL: B7 VL
modifications: oxidation by peptide mapping: Trp-52 1.8%, Met-256 1.3%, Met-362 1.6%, Met-401 1.6%, Met-432 1.2%
B24: Heat-stressed Tremelimumab (40° C.), month 1 (oxidation study) (antibody, human IgG2, kappa, V domains shown)
VH: B7 VH
VL: B7 VL
modifications: oxidation by peptide mapping: Trp-52 1.6%, Met-256 1.4%, Met-362 2.1%, Met-401 2.4%, Met-432 1.5%
B25: Heat-stressed Tremelimumab (40° C.), month 3 (oxidation study) (antibody, human IgG2, kappa, V domains shown)
VH: B7 VH
VL: B7 VL
modifications: oxidation by peptide mapping: Trp-52 4.5%, Met-256 2.5%, Met-362 3.1%, Met-401 4.3%, Met-432 2.7%
B26: Tremelimumab, chemical oxidation study (100 ppm H2O2), Control t = 0 (antibody, human IgG2, kappa)
heavy: B1 heavy
light: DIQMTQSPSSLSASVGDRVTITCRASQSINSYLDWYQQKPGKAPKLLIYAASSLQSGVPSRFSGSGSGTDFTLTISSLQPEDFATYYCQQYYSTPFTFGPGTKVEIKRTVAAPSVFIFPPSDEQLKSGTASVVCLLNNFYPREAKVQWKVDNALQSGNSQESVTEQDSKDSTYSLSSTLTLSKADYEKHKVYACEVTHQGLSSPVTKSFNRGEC
modifications: oxidation by peptide mapping: Met-256 1.2%, Met-362 0.9%, Met-401 1.4%, Met-432 0.2%
B27: Tremelimumab incubated with 100 ppm H2O2 for 4 days (antibody, human IgG2, kappa)
heavy: B1 heavy
light: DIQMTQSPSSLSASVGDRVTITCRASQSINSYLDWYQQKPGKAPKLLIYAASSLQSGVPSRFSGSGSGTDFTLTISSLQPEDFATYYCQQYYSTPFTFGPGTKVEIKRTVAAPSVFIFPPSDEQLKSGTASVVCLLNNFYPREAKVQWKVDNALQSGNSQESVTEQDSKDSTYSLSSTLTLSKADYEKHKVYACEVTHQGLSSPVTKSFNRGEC
modifications: oxidation by peptide mapping: Met-256 79.8%, Met-362 36.3%, Met-401 63.7%, Met-432 53.0%
B28: Tremelimumab incubated with 100 ppm H2O2 for 3 days (antibody, human IgG2, kappa)
heavy: B1 heavy
light: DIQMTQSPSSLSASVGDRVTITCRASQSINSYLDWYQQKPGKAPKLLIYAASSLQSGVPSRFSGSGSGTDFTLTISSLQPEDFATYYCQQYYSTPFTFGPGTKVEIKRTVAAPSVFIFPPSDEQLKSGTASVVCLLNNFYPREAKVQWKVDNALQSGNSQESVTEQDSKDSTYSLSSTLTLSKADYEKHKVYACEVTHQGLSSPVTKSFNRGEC
modifications: oxidation by peptide mapping: Met-256 68.5%, Met-362 26.5%, Met-401 55.2%, Met-432 42.1%
B29: Tremelimumab incubated with 100 ppm H2O2 for 8 hours (antibody, human IgG2, kappa)
heavy: B1 heavy
light: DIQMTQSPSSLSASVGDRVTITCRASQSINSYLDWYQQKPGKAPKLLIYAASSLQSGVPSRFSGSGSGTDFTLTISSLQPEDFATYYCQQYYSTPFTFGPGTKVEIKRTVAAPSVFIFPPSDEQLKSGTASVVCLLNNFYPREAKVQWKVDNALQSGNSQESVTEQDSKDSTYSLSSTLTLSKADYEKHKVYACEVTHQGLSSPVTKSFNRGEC
modifications: oxidation by peptide mapping: Met-256 13.4%, Met-362 3.9%, Met-401 13.3%, Met-432 2.4%
B30: Tremelimumab incubated with 100 ppm H2O2 for 2 days (antibody, human IgG2, kappa)
heavy: B1 heavy
light: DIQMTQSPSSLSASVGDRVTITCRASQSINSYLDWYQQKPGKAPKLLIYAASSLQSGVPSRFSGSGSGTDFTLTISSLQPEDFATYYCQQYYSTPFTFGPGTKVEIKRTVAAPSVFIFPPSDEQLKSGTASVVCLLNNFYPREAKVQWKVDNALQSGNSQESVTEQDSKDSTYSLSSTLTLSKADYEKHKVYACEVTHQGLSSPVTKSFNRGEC
modifications: oxidation by peptide mapping: Met-256 55.8%, Met-362 17.8%, Met-401 44.6%, Met-432 20.7%
B31: Tremelimumab incubated with 100 ppm H2O2 for 25 hours (antibody, human IgG2, kappa)
heavy: B1 heavy
light: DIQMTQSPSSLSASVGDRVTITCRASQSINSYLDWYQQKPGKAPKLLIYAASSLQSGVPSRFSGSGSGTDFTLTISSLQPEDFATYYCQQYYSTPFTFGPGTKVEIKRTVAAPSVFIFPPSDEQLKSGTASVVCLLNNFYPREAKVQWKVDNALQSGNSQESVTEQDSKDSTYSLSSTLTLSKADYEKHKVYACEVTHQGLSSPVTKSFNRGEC
modifications: oxidation by peptide mapping: Met-256 35.5%, Met-362 9.7%, Met-401 28.7%, Met-432 7.8%
B32: Tremelimumab, stressed starting material (low pH 2.5-3.0, 45° C., shaking) (antibody, human IgG2, kappa, V domains shown)
VH: B7 VH
VL: B7 VL
B33: Tremelimumab, Prep SEC aggregate fraction (antibody, human IgG2, kappa, V domains shown)
VH: B7 VH
VL: B7 VL
B34: Tremelimumab, Prep SEC monomer fraction (antibody, human IgG2, kappa, V domains shown)
VH: B7 VH
VL: B7 VL

T2 sequence (P55899 24-297 limits assumed, form in doubt, chain 1 of 2): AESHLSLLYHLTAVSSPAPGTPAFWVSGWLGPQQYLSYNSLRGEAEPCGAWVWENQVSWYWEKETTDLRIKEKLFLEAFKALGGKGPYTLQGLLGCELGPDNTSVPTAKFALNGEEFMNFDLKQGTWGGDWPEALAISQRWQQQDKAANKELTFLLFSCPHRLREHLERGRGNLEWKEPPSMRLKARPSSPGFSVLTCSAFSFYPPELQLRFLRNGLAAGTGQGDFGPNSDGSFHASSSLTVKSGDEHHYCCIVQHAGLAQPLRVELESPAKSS
T2 sequence (P61769 21-119 limits assumed, form in doubt, chain 2 of 2): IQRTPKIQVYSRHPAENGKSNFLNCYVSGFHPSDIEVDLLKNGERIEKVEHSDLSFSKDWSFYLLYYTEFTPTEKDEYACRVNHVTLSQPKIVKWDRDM

The first assay concerns the target T1, CTLA4 on the cells of the reporter gene …. Put plainly: cell-based or functional assay.
For the molecule B1, the “Relative Potency (%)” value was found to be 107%.

Take B2: the “Relative Potency (%)” value is 102%.

Regarding B3, the “Relative Potency (%)” value was found to be 97%.

Consider B4, for which the “Relative Potency (%)” value turned out to be 87%.

For B5, the “Relative Potency (%)” value stood at 59%.

For B6, the “Relative Potency (%)” value came out at 90%.

For the next assay the target is unchanged. The experiment in a line: cell-based or functional assay. The source holds these as a separate data set.
As to B7, the “Relative Potency (%)” value was 76%.

On to B8, for which the “Relative Potency (%)” value worked out at 91%.

Turning to B9, the “Relative Potency (%)” value came to 83%.

As to B10, the “Relative Potency (%)” value was found to be 76%.

In the case of B11, the “Relative Potency (%)” value worked out at 96%.

On to B12, for which the “Relative Potency (%)” value turned out to be 106%.

As to B13, the “Relative Potency (%)” value was determined as 93%.

For the molecule B14, the “Relative Potency (%)” value worked out at 80%.

Turning to B15, the “Relative Potency (%)” value worked out at 76%.

As for B16, the “Relative Potency (%)” value came out at 92%.

On to B17, for which the “Relative Potency (%)” value came out at 98%.

B18: the “Relative Potency (%)” value was 82%.

For a further assay the target is unchanged. Put plainly: cell-based or functional assay. This is another data set of the same source.
For B19, the “Relative Potency (%) (reporter gene assay)” value turned out to be 97%.

Take B20: the “Relative Potency (%) (reporter gene assay)” value was 97%.

As for B21, the “Relative Potency (%) (reporter gene assay)” value came to 95%.

The next assay has as its target T2, recombinant FcRn (UniProt P55899 24-297; P61769 21-119, limits assumed).
T2 construct: also called Neonatal Fc Receptor
Put plainly: SPR, recombinant FcRn immobilized on the sensor; relative to Reference Standard.
Excerpt: (§1) A surface plasmon resonance binding assay was used to measure FcRn binding. This method is based on the ability of the test sample to bind to recombinant FcRn that has been immobilized on an SPR sensor surface. A reference flow cell was created using the same standard amine coupling procedure without the addition of FcRn.
As for B1, the “Relative FcRn Binding (%)” value came to 91%.

As for B2, the “Relative FcRn Binding (%)” value amounted to 98%.

As to B3, the “Relative FcRn Binding (%)” value is 92%.

Regarding B4, the “Relative FcRn Binding (%)” value is 78%.

For the molecule B5, the “Relative FcRn Binding (%)” value stood at 41%.

As to B6, the “Relative FcRn Binding (%)” value stood at 94%.

Another assay deals with T1, CTLA4 on the cells of the reporter gene …. Put plainly: cell-based or functional assay. The source holds these as a separate data set.
Take B22: the “Relative Potency (%)” value stood at 101%.

B23: the “Relative Potency (%)” value came out at 100%.

For B24, the “Relative Potency (%)” value was 112%.

In the case of B25, the “Relative Potency (%)” value came to 98%.

The next assay shares this target. Put plainly: cell-based or functional assay. This is another data set of the same source.
Consider B26, for which the “Relative Potency (%)” value was 100%.

Regarding B27, the “Relative Potency (%)” value came to 98%.

On to B28, for which the “Relative Potency (%)” value is 83%.

As for B29, the “Relative Potency (%)” value came out at 88%.

Regarding B30, the “Relative Potency (%)” value was found to be 88%.

Regarding B31, the “Relative Potency (%)” value is 83%.

For a further assay the target is unchanged. The experiment in a line: cell-based or functional assay. The source holds these as a separate data set.
With B32, the “Relative Potency (%)” value was 91%.

As for B33, the “Relative Potency (%)” value was 73%.

With B34, the “Relative Potency (%)” value is 98%.

For another assay, the target named is T2, recombinant FcRn. The experiment in a line: SPR, recombinant FcRn immobilized on the sensor; relative to Reference Standard. The source holds these as a separate data set. Background: SPR reads the build-up and loss of mass on a sensor chip optically.
Excerpt: as §1
Turning to B26, the “Relative FcRn Binding (%)” value came out at 89%.

As for B27, the “Relative FcRn Binding (%)” value turned out to be 24%.

Turning to B28, the “Relative FcRn Binding (%)” value was found to be 28%.

Consider B29, for which the “Relative FcRn Binding (%)” value came out at 93%.

For the molecule B30, the “Relative FcRn Binding (%)” value is 37%.

Turning to B31, the “Relative FcRn Binding (%)” value amounted to 91%.
